The chains are these.
T1: Human PTK7/CCK4 Protein, His Tag, Acro Biosystems PT7-H52H3 (human, UniProt Q13308 31-704)
T1 construct: bought protein; also called Human PTK7 Protein, His Tag, Acro Biosystems; not shown: His tag
T1 sequence: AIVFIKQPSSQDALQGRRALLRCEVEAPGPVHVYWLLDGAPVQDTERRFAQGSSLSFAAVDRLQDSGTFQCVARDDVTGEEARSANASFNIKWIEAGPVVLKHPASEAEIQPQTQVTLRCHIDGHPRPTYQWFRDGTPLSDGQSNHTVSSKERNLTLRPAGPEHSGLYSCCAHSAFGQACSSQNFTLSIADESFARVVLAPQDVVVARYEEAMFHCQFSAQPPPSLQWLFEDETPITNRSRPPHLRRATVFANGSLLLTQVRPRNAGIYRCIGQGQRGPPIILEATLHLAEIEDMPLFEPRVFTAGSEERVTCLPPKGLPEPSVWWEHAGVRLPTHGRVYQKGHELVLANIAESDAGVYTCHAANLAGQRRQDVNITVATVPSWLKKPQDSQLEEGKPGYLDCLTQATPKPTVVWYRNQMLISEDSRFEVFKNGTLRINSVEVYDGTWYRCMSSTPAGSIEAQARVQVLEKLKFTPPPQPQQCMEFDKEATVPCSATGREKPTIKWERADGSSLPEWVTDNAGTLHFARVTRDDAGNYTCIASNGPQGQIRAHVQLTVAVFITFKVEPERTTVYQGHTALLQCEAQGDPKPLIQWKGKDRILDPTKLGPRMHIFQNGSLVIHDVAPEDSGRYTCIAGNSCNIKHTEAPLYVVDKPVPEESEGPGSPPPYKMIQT

B1: MYT11151 (antibody, V domains shown)
VH: EVQLVESGGGLVQPGGSLRLSCTASGFSLSTYAMSWVRQAPGKGLEWVGMIYINDNTYYASWAKGRFTISRDTSKNTVYLQMNSLRAEDTAVYFCARDIGISYYIGVSLWGQGTLVTVSS
VL: EIVMTQSPSTLSASVGDRVIITCQASQSIHTRLSWYQQKPGKAPKLLIYGASKLATGVPSRFSGSGSGAEFTLTISSLQPDDFATYYCLGEYSYTTTDGIAFGQGTKLTVL
notes: IgG
B2: MYT11153 (antibody, V domains shown)
VH: B1 VH
VL: B1 VL with H30G, R32H
notes: IgG
B3: MYT11166 (antibody, V domains shown)
VH: B1 VH
VL: B1 VL with H30G, Y92H
notes: IgG
B4: MYT11163 (antibody, V domains shown)
VH: B1 VH
VL: B1 VL with H30G, L89H
notes: IgG
B5: MYT11152 (antibody, V domains shown)
VH: B1 VH
VL: B1 VL with H30G, T31H
notes: IgG
B6: MYT11172 (antibody, V domains shown)
VH: B1 VH
VL: B1 VL with H30G, D98H
notes: IgG
B7: MYT11180 (antibody, V domains shown)
VH: EVQLVESGGGLVQPGGSLRLSCTASHIDLSSYVMGWVRQAPGKGLEWVGYIYGGGGTYYATWARGRFTISRDTSKNTVYLQMNSLRAEDTAVYFCARAAADFYFNLWGQGTLVTVSS
VL: EIVMTQSPSTLSASVGDRVIITCQASQSISSYLAWYQQKPGKAPKLLIYDISDLASGVPSRFSGSGSGAEFTLTISSLQPDDFATYYCQSYYWISNSGAAFGQGTKLTVL
notes: IgG
B8: MYT11192 (antibody, V domains shown)
VH: B7 VH with H26G, Y52H
VL: B7 VL
notes: IgG
B9: MYT11229 (antibody, V domains shown)
VH: B7 VH with H26G
VL: B7 VL with L33H
notes: IgG
B10: MYT11244 (antibody, V domains shown)
VH: B7 VH with H26G
VL: B7 VL with S95H
notes: IgG
B11: MYT11240 (antibody, V domains shown)
VH: B7 VH with H26G
VL: B7 VL with Y91H
notes: IgG
B12: MYT11247 (antibody, V domains shown)
VH: B7 VH with H26G
VL: B7 VL with G98H
notes: IgG
B13: MYT11222 (antibody, V domains shown)
VH: B7 VH with H26G
VL: B7 VL with S26H
notes: IgG
B14: MYT11245 (antibody, V domains shown)
VH: B7 VH with H26G
VL: B7 VL with N96H
notes: IgG
B15: MYT11193 (antibody, V domains shown)
VH: B7 VH with H26G, G53H
VL: B7 VL
notes: IgG
B16: MYT11221 (antibody, V domains shown)
VH: B7 VH with H26G
VL: B7 VL with A25H
notes: IgG
B17: MYT11246 (antibody, V domains shown)
VH: B7 VH with H26G
VL: B7 VL with S97H
notes: IgG
B18: MYT11194 (antibody, V domains shown)
VH: B7 VH with H26G, G54H
VL: B7 VL
notes: IgG
B19: MYT11224 (antibody, V domains shown)
VH: B7 VH with H26G
VL: B7 VL with S28H
notes: IgG
B20: MYT11213 (antibody, V domains shown)
VH: B7 VH with H26G, Y103H
VL: B7 VL
notes: IgG
B21: MYT11196 (antibody, V domains shown)
VH: B7 VH with H26G, G56H
VL: B7 VL
notes: IgG
B22: MYT11197 (antibody, V domains shown)
VH: B7 VH with H26G, T57H
VL: B7 VL
notes: IgG
B23: MYT11182 (antibody, V domains shown)
VH: B7 VH with H26G, D28H
VL: B7 VL
notes: IgG
B24: MYT11210 (antibody, V domains shown)
VH: B7 VH with H26G, A100H
VL: B7 VL
notes: IgG
B25: MYT11248 (antibody, V domains shown)
VH: B7 VH with H26G
VL: B7 VL with A99H
notes: IgG
B26: MYT11238 (antibody, V domains shown)
VH: B7 VH with H26G
VL: B7 VL with Q89H
notes: IgG
B27: MYT11195 (antibody, V domains shown)
VH: B7 VH with H26G, G55H
VL: B7 VL
notes: IgG
B28: MYT11236 (antibody, V domains shown)
VH: B7 VH with H26G
VL: B7 VL with A55H
notes: IgG
B29: MYT11184 (antibody, V domains shown)
VH: B7 VH with H26G, S30H
VL: B7 VL
notes: IgG
B30: MYT11225 (antibody, V domains shown)
VH: B7 VH with H26G
VL: B7 VL with I29H
notes: IgG

Numbering of substitutions follows the chain as printed.

The target of this test is T1, Human PTK7/CCK4 Protein, His Tag, Acro …. Kind of test: BLI, antibody on anti-human Fc sensor, 50 nM PTK7.
For the molecule B1, the binding result is “binds”. As for B2, the entry is “binds”; as for B3, “binds”. As for B4, the entry is “binds”; as for B5, “binds”; as for B6, “binds”. As to B7, the binding result is “binds”.

As for B8, the binding result is listed as “binds”. Take B9: the binding result is recorded as “binds”. To B10 belongs “binds”; to B11, “binds”. As for B12, the entry is “binds”.

Consider B13, for which the binding result is “binds”.

Consider B14, for which the binding result was “binds”. As for B15, the entry is “binds”; as for B16, “binds”; as for B17, “binds”.

For B18, the binding result is listed as “binds”. As for B19, the entry is “binds”; as for B20, “binds”.

In the case of B21, the binding result is reported as “binds”. To B22 belongs “binds”; to B23, “binds”.

In the case of B24, the binding result is recorded as “binds”. As for B25, the entry is “binds”; as for B26, “binds”; as for B27, “binds”.

As to B28, the binding result is on record as “binds”. As for B29, the entry is “binds”; as for B30, “binds”.

The record behind these values is patent US20260209386A1 (MYTHIC THERAPEUTICS, published 2026).
